Results as given in publication PMC2409434.

Tested on: ArgR (arginine repressor) (Escherichia coli)
Assay: EMSA
Conditions: EMSA essentially as Burke et al. 1994 with 1 mM L-arginine; ArgR dilution buffer 20 mM Tris-HCl pH 8.2, 20 mM MgCl2, 150 mM NaCl, 5 mM DTT, 1 ug/ml BSA, 0.01% …

Substance	K half
cer 190 bp Arg-box fragment	10 nM
loxP 198 bp fragment (P1 putative Arg-box)	> 200 nM
